Test results reported in paper doi:10.1101/2025.07.23.666473.

Target: NaV1.5 (mouse (endogenous in heart)) (UniProt Q9JJV9)
Assay: co-IP

Sequence of UniProt Q9JJV9 (Q9JJV9 whole entry): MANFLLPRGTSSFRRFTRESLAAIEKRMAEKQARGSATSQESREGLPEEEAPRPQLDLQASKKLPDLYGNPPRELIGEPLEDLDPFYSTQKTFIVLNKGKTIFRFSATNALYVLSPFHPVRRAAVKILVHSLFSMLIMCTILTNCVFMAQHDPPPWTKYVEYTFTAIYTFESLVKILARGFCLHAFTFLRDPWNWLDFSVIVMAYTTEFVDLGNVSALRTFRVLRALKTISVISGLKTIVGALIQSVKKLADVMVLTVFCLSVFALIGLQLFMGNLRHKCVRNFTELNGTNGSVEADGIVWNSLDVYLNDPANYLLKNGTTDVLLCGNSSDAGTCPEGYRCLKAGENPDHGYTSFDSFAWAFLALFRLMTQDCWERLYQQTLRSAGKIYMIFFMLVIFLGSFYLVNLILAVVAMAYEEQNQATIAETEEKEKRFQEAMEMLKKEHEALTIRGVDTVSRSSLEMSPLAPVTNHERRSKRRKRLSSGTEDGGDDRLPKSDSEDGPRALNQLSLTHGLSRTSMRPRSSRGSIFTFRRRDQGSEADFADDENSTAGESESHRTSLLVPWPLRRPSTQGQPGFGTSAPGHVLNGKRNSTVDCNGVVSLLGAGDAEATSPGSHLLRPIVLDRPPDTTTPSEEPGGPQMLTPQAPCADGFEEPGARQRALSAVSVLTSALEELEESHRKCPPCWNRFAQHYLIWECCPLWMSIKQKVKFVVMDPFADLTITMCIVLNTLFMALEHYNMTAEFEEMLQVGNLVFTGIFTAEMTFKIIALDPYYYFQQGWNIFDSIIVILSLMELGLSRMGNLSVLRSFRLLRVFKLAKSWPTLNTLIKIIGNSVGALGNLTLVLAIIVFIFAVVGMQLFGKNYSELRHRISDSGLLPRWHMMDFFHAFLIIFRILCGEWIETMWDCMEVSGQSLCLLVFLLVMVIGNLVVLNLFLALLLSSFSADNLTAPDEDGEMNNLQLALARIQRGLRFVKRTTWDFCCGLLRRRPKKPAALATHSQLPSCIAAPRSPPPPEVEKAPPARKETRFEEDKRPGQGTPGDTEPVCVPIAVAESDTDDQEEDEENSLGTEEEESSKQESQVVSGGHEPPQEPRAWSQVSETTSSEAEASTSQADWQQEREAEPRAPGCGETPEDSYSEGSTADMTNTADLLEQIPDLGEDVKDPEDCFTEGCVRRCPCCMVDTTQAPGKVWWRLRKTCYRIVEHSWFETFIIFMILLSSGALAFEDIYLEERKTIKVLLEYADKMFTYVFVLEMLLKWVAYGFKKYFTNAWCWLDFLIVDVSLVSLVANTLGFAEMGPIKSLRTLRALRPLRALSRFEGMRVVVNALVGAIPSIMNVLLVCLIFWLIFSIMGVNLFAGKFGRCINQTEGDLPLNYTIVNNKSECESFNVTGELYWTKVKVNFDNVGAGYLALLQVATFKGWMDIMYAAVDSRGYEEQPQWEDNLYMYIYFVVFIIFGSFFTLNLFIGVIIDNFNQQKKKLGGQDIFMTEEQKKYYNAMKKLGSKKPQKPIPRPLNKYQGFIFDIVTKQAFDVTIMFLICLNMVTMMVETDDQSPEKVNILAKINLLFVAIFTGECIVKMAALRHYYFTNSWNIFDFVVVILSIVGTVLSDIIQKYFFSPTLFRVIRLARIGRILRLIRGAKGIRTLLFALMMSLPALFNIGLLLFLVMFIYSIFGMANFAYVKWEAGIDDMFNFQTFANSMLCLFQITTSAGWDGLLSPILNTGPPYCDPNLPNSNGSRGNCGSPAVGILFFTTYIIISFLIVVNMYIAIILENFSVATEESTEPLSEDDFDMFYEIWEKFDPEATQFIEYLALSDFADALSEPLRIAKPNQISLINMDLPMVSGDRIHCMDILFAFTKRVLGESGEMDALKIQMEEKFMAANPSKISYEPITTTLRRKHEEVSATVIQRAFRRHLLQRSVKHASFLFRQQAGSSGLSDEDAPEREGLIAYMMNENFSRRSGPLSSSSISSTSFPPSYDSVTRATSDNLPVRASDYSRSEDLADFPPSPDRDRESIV

“FGF13 (from UniProt P70377 1-245) (natural protein)” gave a percent of total FGF13 depleted with NaV1.5 (in complex) of 35%.
